Marks after values point to notes of the source that are not given here.
What was measured:
Th1 cells = assay: Cytokine assay (ELISA of culture supernatants), CD4+ Th1 cells; format: cell-based, human; details: 5 μg/mL mAb
Description: (§1) IL-4, IL-5, IL-10, IL-13, and IFNγ production levels by activated Th1 and Th2 cell were measured in culture supernatants treated with anti-TIM-1 antibodies using standard ELISA protocols. Cytokine production by Th1 or Th2 cells treated with anti-TIM-1 antibodies was compared to Th1 or Th2 cells treated with the control PK16.3 antibody. In addition, the following samples were run in parallel as internal controls: i) anti-CD3 treated Th1 or Th2 cells, where no cytokine production is expected because of the absence of co-stimulation, ii) anti-CD3/anti-CD28 stimulated Th1 or Th2 cells, expected to show detectable cytokine production, and iii) untreated Th1 or Th2 cells. CD4+ T cells were isolated as described in the Example above. Isolated CD4+ lymphocytes were then spun down and re-suspended in DMEM 5% FCS plus additives (non-essential amino acids, sodium pyruvate, mercaptoethanol, glutamine, penicillin, and streptomycin) at 10^6 cells/mL. Falcon 6-well non-tissue culture treated plates were pre-coated overnight with anti-CD3 (2 μg/mL) and anti-CD28 (10 μg/mL) (600 μL total in Dulbecco's PBS) overnight at 4° C. The plates were washed with PBS and CD4+ lymphocytes were suspended at 500,000 cells/mL in Th2 medium: DMEM+10% FCS plus supplements and IL-2 5 ng/mL, IL-4 5 ng/mL, anti-IFN gamma 5 μg/mL and cells were stimulated 4-6 days at 37° C. and 5% CO2 in the presence of 5 μg/mL of mAb recognizing the TIM-1 protein or isotype matched negative control mAb PK16.3.
(§2) In another set of experiments, CD4+ lymphocytes were suspended at 500,000 cells/mL in Th1 medium: DMEM+10% FCS plus supplements and IL-2 5 ng/mL, IL12 5 ng/mL, anti-IL-4 5 μg/mL and stimulated 4-6 days 37° C. temp and 5% CO2 in the presence of 5 μg/mL TIM-1 or isotype matched control mAb PK16.3. Cells were washed two times in DMEM and resuspended in DMEM, 10% FCS plus supplements and 2 ng/mL IL-2 (500,000 cells/mL) in the presence of 5 μg/mL TIM-1 mAb or control PK16.3 mAb and cultured (rested) for 4-6 days at 37° C. and 5% CO2. The process of activation and resting was repeated at least once more as described above with the addition of anti-CD95L (anti-FAS ligand) to prevent FAS-mediated apoptosis of cells. Falcon 96-well non-tissue culture treated plates pre-coated overnight with anti-CD3 mAb at 500 ng/mL and costimulatory molecule B7H2 (B7 homolog 2) 5 μg/mL were washed and 100 μL of TIM-1 mAb treated Th1 or Th2 (200,000 cells) added per well. After 3 days of culture, the supernatants were removed and IL-4, IL-5, IL-10, IL-13, and IFNγ […]levels were determined by ELISA (Pharmingen, San Diego, Calif. or R&D Systems, Minneapolis, Minn.).

TIM-1 antigen = molecular target: T1, TIM-1 antigen (Homo sapiens, UniProt Q96D42, DEL158-162/L179P); assay: Epitope binning (antigen binding competition, Luminex)
T1 construct: V5; His; made in house; host or cells: baculovirus expression system (pMelV5His vector / pBlueBac)
T1 sequence (Q96D42 with tags, fused parts or gaps DEL158-162/L179P): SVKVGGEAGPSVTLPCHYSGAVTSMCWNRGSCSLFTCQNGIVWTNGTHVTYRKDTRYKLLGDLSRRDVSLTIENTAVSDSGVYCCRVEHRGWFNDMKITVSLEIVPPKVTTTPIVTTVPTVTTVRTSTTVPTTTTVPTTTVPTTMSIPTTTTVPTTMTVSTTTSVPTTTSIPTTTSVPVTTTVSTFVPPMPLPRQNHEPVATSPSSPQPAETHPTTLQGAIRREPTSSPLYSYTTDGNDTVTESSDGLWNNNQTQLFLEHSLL
Description: Certain antibodies, described herein were “binned” in accordance with the protocol described in U.S. Patent Application Publication No. 20030157730, published on Aug. 21, 2003, entitled “Antibody Categorization Based on Binding Characteristics.”
MxhIgG conjugated beads were prepared for coupling to primary antibody. The volume of supernatant needed was calculated using the following formula: (n+10)×50 μL (where n=total number of samples on plate). Where the concentration was known, 0.5 μg/mL was used. Bead stock was gently vortexed, then diluted in supernatant to a concentration of 2500 of each bead per well or 0.5×10^5/mL and incubated on a shaker in the dark at room temperature overnight, or 2 hours if at a known concentration of 0.5 μg/mL. Following aspiration, 50 μL of each bead was added to each well of a filter plate, then washed once by adding 100 μL/well wash buffer and aspirating. Antigen and controls were added to the filter plate 50 μL/well then covered and allowed to incubate in the dark for 1 hour on shaker. Following a wash step, a secondary unknown antibody was added at 50 μL/well using the same dilution (or concentration if known) as used for the primary antibody. The plates were then incubated in the dark for 2 hours at room temperature on shaker followed by a wash step. Next, 50 μL/well biotinylated mxhIgG diluted 1:500 was added and allowed to incubate in the dark for 1 hour on shaker at room temperature. Following a wash step, 50 μL/well Streptavidin-PE was added at 1:1000 and allowed to incubate in the dark for 15 minutes on shaker at room temperature. Following a wash step, each well was resuspended in 80 μL blocking buffer and read using a Luminex system.

[1] = molecular target: T2, TIM-1 protein on human CD4+ Th2 cells (Homo sapiens, UniProt Q96D42); assay: FACS analysis of expression of TIM-1 protein on human CD4+ Th2 cells; format: binding
T2 construct: a major fraction of polarized human Th2 and Th1 cells do express TIM-1; endogenous in cells; host or cells: primary human CD4+ T cells from blood
T2 sequence (Q96D42 21-364): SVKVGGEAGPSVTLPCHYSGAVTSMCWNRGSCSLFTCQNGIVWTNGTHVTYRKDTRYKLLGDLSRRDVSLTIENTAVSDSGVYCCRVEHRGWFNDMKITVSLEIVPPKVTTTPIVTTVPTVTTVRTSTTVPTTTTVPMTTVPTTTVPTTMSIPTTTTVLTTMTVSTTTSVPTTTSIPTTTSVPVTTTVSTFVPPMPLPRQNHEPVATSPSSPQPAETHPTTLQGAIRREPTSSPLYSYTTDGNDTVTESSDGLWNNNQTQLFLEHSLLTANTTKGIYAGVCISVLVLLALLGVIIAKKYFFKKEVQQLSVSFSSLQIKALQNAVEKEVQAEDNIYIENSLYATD
Description: Mononuclear cells were isolated from human blood diluted 1:1 in PBS, by spinning over Ficoll for 20 minutes. The mononuclear cells were washed twice at 1000 rpm with PBS-Mg and Ca and re-suspended in Miltenyi buffer (Miltenyi Biotec Inc., Auburn, Calif.); PBS, 0.5% BSA, 5 mM EDTA at approximately 10^8 cells/mL. 20 μL of CD4 Miltenyi beads were added per 107 cells and incubated for 15 minutes on ice. Cells were washed with a 10-fold excess volume of Miltenyi buffer. A positive selection column (type VS+) (Miltenyi Biotec Inc., Auburn, Calif.) was washed with 3 mL of Miltenyi buffer. The pelleted cells were re-suspended at 10^8 cells per mL of Miltenyi buffer and applied to the washed VS column. The column was then washed three times with 3 mL of Miltenyi buffer. Following this, the VS column was removed from the magnetic field and CD4+ cells were eluted from the column with 5 mL of Miltenyi buffer. […]
FACS analysis was performed to determine the expression of TIM-1 protein as detected with five anti-TIM-1 monoclonal antibodies (2.59.2, 1.29, 2.70.2, 2.56.2, 2.45.1) on human and mouse resting CD4+ T cells, as well as human activated and human polarized CD4+ T cells.
Data is reported as the geometric mean of the fluorescence intensity.

Th2 cells = assay: Cytokine assay (ELISA of culture supernatants), CD4+ Th2 cells; format: cell-based, human; details: for IL-5 production, percent of cytokine production detected using the control PK16.3 mAb / IL-10 production, percent of cytokine production detected using the control PK16.3 mAb / IL-13 production, percent of cytokine production detected using the control PK16.3 mAb / IL-4 production, percent of cytokine production detected using the control PK16.3 mAb: Th2
Description: as §1, §2
Each experiment used purified CD4+ cells isolated from whole blood samples from two independent donors. Cytokine production is reported as the percent of cytokine production detected using the control PK16.3 mAb. The anti-TIM-1 mAb used in each experiment is specified along the bottom row.

BT549 cells = assay: FACS analysis on antigen negative BT549 breast cancer cells (control); format: binding, human; details: normalized to isotype control (pK16)
[2] = TH1, Donor 12 + 17, control PK16.3 mAb
[3] = 5 μg/mL mAb, compared to control PK16.3 mAb
[4] = TH2, Donor 12 + 17, control PK16.3 mAb, 5 μg/mL mAb

B1: mAb 1.29: fully human IgG2 kappa anti-TIM-1 monoclonal antibody; heavy chain SEQ ID NO: 2, light chain SEQ ID NO: 4 (antibody, listed as Homo Sapiens, V domains shown)
VH: QVQLQESGPGLVKPSETLSLTCTVSGGSVSSGGYYWSWIRQPPGKGLEWIGFIYYTGSTNYNPSLKSRVSISVDTSKNQFSLKLSSVTAADAAVYYCARDYDWSFHFDYWGQGTLVTVSSA
VL: DIQMTQSPSSLSASIGDRVTITCRASQGIRNDLGWYQQKPGKAPKRLIYAASSLQSGVPSRFSGSGSGTEFTLTISSLQPEDFATYYCLQHNSYPLTFGGGTKVEIKR
Th1 cells; compared to control PK16.3 mAb
  IL-10 release from Th1 cells: significantly inhibited
  IL-13 release from Th1 cells: significantly inhibited
Th1 cells; [2]
  IL-4 Percentage of Control Antibody: 81.05 Percentage of Control Antibody
  IL-5 Percentage of Control Antibody: 94.63 Percentage of Control Antibody
  IL-10 Percentage of Control Antibody: 60.77 ** Percentage of Control Antibody
  IL-13 Percentage of Control Antibody: 73.95 *** Percentage of Control Antibody
  INF γ Percentage of Control Antibody: 93.51 Percentage of Control Antibody
TIM-1 antigen; Table 8
  BIN: 1
TIM-1 antigen; Table 9
  Bin: 1
[1]; Polarized Human CD4+ Th2 Cells
  Geometric mean of fluorescence intensity: 22.3
[1]; Resting Human CD4+ T cells
  Geometric mean of fluorescence intensity: 4.7
Th2 cells; [3]
  IL-5 release from Th2 cells: significantly inhibited
  IL-10 release from Th2 cells: significantly inhibited
  IL-13 release from Th2 cells: significantly inhibited
Th2 cells; [4]
  IL-4 Percentage of Control Antibody: 112.54 Percentage of Control Antibody
  IL-5 Percentage of Control Antibody: 80.26 Percentage of Control Antibody
  IL-10 Percentage of Control Antibody: 44.45 * Percentage of Control Antibody
  IL-13 Percentage of Control Antibody: 48.91 ** Percentage of Control Antibody
  INF γ Percentage of Control Antibody: 112.54 Percentage of Control Antibody
Th2 cells; Donor ID 12
  IL-5 production, percent of cytokine production detected using the control PK16.3 mAb: 2%
  IL-10 production, percent of cytokine production detected using the control PK16.3 mAb: 109%
  IL-13 production, percent of cytokine production detected using the control PK16.3 mAb: 91%
Th2 cells; Donor ID 12 + 14
  IL-4 production, percent of cytokine production detected using the control PK16.3 mAb: 626%
  IL-5 production, percent of cytokine production detected using the control PK16.3 mAb: 5%
  IL-10 production, percent of cytokine production detected using the control PK16.3 mAb: 83%
Th2 cells; Donor ID 13 + 14
  IL-4 production, percent of cytokine production detected using the control PK16.3 mAb: 130%
  IL-5 production, percent of cytokine production detected using the control PK16.3 mAb: 122%
  IL-10 production, percent of cytokine production detected using the control PK16.3 mAb: 19%
  IL-13 production, percent of cytokine production detected using the control PK16.3 mAb: 17%
Th2 cells; Donor ID 14
  IL-5 production, percent of cytokine production detected using the control PK16.3 mAb: 67%
  IL-10 production, percent of cytokine production detected using the control PK16.3 mAb: 45%
  IL-13 production, percent of cytokine production detected using the control PK16.3 mAb: 100%
Th2 cells; multiple experiments with different donors
  block of Th2 cytokines across donor groups: reproducibly block one or more of the Th2 cytokines
BT549 cells
  Geo Mean Ratio (relative to negative control) BT549: 1.2

From US20170267750A1, “Method of Treating Ovarian and Renal Cancer Using Antibodies Against T Cell Immunoglobulin Domain and Mucin Domain 1 (TIM-1) Antigen” (Celldex Therapeutics, Inc., priority 2005, published 2017)
